Results on one molecule are retold here after patent publication US20030187223A1 (US Dept. of Health and Human Services, published 2003).

This test deals with T1, bovine serum albumin (bovine, UniProt P02769 25-607).
T1 construct: Control coat in the ELISA; also called BSA
As to the kind of experiment: ELISA, wells coated with BSA alone, Wg conditioned medium. The procedure: First, an ELISA was used to measure sFRP-1 binding to Wg. Wells were coated with purified full-length sFRP-1 and then blocked with an excess of BSA. Subsequently, conditioned medium from S2HSWg cells expressing soluble Wg was incubated in the wells overnight at room temperature. As a control, aliquots of the same medium were incubated in wells treated with BSA but not sFRP-1. […] In contrast, little Wg was detected in wells that had not been treated with sFRP-1 , and no signal was observed when medium lacking Wg was used in the assay (FIG. 3, A and B).
sFRP-1/Wg ELISA Binding Assays—sFRP-1 diluted in 0.02% NaN₃/PBS was incubated in 96-well Falcon ELISA plates (300 ng/[…]) for 2 h at 37° C. After decanting, all wells were filled with 4% BSA/0.02% NaN₃/PBS and incubated for an additional 2 h at 37° C. Following five washes with TAPS (0.05% Tween-20 in 0.02% NaN₃/PBS), […] of Wg-containing or S2 control medium diluted in 1% BSA/TAPS were incubated overnight at room temperature. After five washes with TAPS, […] of Wg mAb diluted in 1% BSA/TAPS to a final concentration of […] was incubated in wells for 2 h at 37° C. Another five washes in TAPS were followed by a 2 h treatment at 37° C. with 1:400 dilution of conjugated alkaline phosphatase-goat anti-mouse IgG (Sigma). […] Absorbance at 405 nm was measured with an ELISA plate reader (Bio-Rad, Hercules, Calif.). […]

T1 sequence (P02769 25-607 limits assumed): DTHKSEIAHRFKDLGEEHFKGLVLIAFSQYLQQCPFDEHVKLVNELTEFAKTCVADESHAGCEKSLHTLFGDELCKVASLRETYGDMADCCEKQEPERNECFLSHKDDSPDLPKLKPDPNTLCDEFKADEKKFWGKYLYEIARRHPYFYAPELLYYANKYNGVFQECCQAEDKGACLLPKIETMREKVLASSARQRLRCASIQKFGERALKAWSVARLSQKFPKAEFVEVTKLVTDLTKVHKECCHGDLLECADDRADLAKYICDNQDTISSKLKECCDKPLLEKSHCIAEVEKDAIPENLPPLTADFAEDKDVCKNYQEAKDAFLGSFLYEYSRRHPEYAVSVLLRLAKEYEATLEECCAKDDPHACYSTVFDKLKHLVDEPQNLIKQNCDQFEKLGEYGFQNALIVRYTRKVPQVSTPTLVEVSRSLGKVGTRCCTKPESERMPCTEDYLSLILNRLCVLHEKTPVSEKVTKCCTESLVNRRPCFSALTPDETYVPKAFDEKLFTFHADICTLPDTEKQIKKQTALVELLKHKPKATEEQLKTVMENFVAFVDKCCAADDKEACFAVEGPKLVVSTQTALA

B1: Wingless (Wg), soluble, in conditioned medium of S2HSWg cells (ligand, Drosophila melanogaster, UniProt P09615 18-468, looked up)
chain: GSSLSQVEGKQKSGRGRGSMWWGIAKVGEPNNITPIMYMDPAIHSTLRRKQRRLVRDNPGVLGALVKGANLAISECQHQFRNRRWNCSTRNFSRGKNLFGKIVDRGCRETSFIYAITSAAVTHSIARACSEGTIESCTCDYSHQSRSPQANHQAGSVAGVRDWEWGGCSDNIGFGFKFSREFVDTGERGRNLREKMNLHNNEAGRAHVQAEMRQECKCHGMSGSCTVKTCWMRLANFRVIGDNLKARFDGATRVQVTNSLRATNALAPVSPNAAGSNSVGSNGLIIPQSGLVYGEEEERMLNDHMPDILLENSHPISKIHHPNMPSPNSLPQAGQRGGRNGRRQGRKHNRYHFQLNPHNPEHKPPGSKDLVYLEPSPSFCEKNLRQGILGTHGRQCNETSLGVDGCGLMCCGRGYRRDEVVVVERCACTFHWCCEVKCKLCRTKKVIYTCL
notes: Used as unpurified conditioned medium; also called Wg medium; Wg-containing medium
With B1, the binding result is listed as “no binding”.
